Substitutions are numbered along the chain they refer to.
T1: cynomolgus monkey FcγRIIa1 extracellular domain with C-terminal His-tag (cynomolgus monkey)
T1 construct: Expressed in FreeStyle 293 cells and purified; also called cyno FcγRIIa1; cynoFcgRIIa1; not shown: C-terminal His-tag
T1 chain: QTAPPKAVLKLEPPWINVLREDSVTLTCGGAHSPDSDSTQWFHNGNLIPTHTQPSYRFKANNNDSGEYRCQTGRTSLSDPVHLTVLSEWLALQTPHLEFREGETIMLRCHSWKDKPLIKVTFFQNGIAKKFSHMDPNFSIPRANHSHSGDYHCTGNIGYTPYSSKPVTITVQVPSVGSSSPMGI

T2: cynomolgus monkey FcγRIIa2 extracellular domain with C-terminal His-tag (cynomolgus monkey)
T2 construct: Expressed in FreeStyle 293 cells and purified; also called cyno FcγRIIa2; cynoFcgRIIa2; not shown: C-terminal His-tag
T2 chain: T1 chain with P95T, T121A, I127K, A128S, K130N, D135N, R142Q

T3: cynomolgus monkey FcγRIIa3 extracellular domain with C-terminal His-tag (cynomolgus monkey)
T3 construct: Expressed in FreeStyle 293 cells and purified; also called cyno FcγRIIa3; cynoFcgRIIa3; not shown: C-terminal His-tag
T3 chain: T1 chain with P95T, T121A, A128S, H133P, D135N

T4: cynomolgus monkey FcγRIIb extracellular domain with C-terminal His-tag (cynomolgus monkey)
T4 construct: Expressed in FreeStyle 293 cells and purified; also called cyno FcγRIIb; cynoFcγRIIb; not shown: C-terminal His-tag
T4 chain: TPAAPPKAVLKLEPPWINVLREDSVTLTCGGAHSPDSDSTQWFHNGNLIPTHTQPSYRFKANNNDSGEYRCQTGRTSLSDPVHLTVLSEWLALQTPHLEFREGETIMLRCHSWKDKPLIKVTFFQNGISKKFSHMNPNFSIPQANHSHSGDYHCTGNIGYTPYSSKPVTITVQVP

T5: human FcγRIIaH extracellular domain with C-terminal His-tag (human, UniProt P12318 34-217)
T5 construct: Expressed in FreeStyle 293 cells and purified; also called human FcγRIIa (type H); FcgRIIaH; not shown: C-terminal His-tag
T5 sequence: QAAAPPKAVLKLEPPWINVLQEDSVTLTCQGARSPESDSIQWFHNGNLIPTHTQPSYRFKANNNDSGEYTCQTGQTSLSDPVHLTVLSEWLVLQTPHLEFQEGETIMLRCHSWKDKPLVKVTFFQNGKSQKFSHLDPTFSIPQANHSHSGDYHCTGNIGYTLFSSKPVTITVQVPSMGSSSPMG

T6: human FcγRIIaR extracellular domain with C-terminal His-tag (human, UniProt P12318 34-217)
T6 construct: Expressed in FreeStyle 293 cells and purified; also called human FcγRIIa (type R); FcgRIIaR; not shown: C-terminal His-tag
T6 chain: T5 sequence with H134R

T7: human FcγRIIb extracellular domain with C-terminal His-tag (human, UniProt P31994 43-217)
T7 construct: Expressed in FreeStyle 293 cells and purified; also called humanFcgRIIb; not shown: C-terminal His-tag
T7 sequence: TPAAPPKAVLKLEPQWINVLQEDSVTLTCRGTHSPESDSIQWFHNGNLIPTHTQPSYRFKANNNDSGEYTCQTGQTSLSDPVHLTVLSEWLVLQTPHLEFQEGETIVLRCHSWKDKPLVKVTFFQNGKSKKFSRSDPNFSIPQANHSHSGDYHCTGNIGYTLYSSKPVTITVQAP

B1: M103205H795-MY172 / M103202L889-SK1 (antibody, human IgG1, kappa)
heavy: QVTLKESGPVLVKPTETLTLTCTVSGIDLSHDDISWVRQAPGKGLEWVGIISYAGSTYYASWAKGRLTISKDTSKNQVVLTMTNMDPVDTATYYCARGVPAYSHGGDLWGQGTLVTVSSASTKGPSVFPLAPSSKSTSGGTAALGCLVKDYFPEPVTVSWNSGALTSGVHTFPAVLQSSGLYSLSSVVTVPSSSLGTQTYICNVNHKPSNTKVDKKVEPKSCDKTHTCPPCPAPELLNGPSVFLFPPKPKDTLMISRTPEVTCVVVDVSEEDPEVKFNWYVDGVEVHNAKTKPREEQYNSTYRVVSVLTVLHQDWLNGKEYKCKVSNKALPAPIEKTISKAKGQPREPQVYTLPPSREEMTKNQVSLTCLVKGFYPSDIAVEWESNGQPENNYKTTPGVLDSDGSFFLYSKLTVDKSRWQQGNVFSCSVMHEALHNHYTQKSLSLSP
light: DIVMTQSPATLSLSPGERATLSCTSSQSVYHANWLSWFQQKPGQPPKLLIYWASTLAYGVPSRFSGSGSGTDFTLTISSLQPEDAATYYCAGGYGGGRYAFGQGTKVEIKRTVAAPSVFIFPPSDEQLKSGTASVVCLLNNFYPREAKVQWKVDNALQSGNSQESVTEQDSKDSTYSLSSTLTLSKADYEKHKVYACEVTHQGLSSPVTKSFNRGEC
notes: Position 396 variant derived from MY052, expressed with M103202L889-SK1 as light chain
B2: M103205H795-MY182 / M103202L889-SK1 (antibody, human IgG1, kappa)
heavy: B1 heavy with G398V
light: B1 light
notes: as for B1
B3: M103205H795-MY184 / M103202L889-SK1 (antibody, human IgG1, kappa)
heavy: B1 heavy with G398Y
light: B1 light
notes: as for B1
B4: M103205H795-MY175 / M103202L889-SK1 (antibody, human IgG1, kappa)
heavy: B1 heavy with G398K
light: B1 light
notes: as for B1
B5: M103205H795-MY173 / M103202L889-SK1 (antibody, human IgG1, kappa)
heavy: B1 heavy with G398H
light: B1 light
notes: as for B1
B6: M103205H795-MY180 / M103202L889-SK1 (antibody, human IgG1, kappa)
heavy: B1 heavy with G398S
light: B1 light
notes: as for B1
B7: M103205H795-MY178 / M103202L889-SK1 (antibody, human IgG1, kappa)
heavy: B1 heavy with G398Q
light: B1 light
notes: as for B1
B8: M103205H795-MY183 / M103202L889-SK1 (antibody, human IgG1, kappa)
heavy: B1 heavy with G398W
light: B1 light
notes: as for B1
B9: M103205H795-MY174 / M103202L889-SK1 (antibody, human IgG1, kappa)
heavy: B1 heavy with G398I
light: B1 light
notes: as for B1
B10: M103205H795-MY177 / M103202L889-SK1 (antibody, human IgG1, kappa)
heavy: B1 heavy with G398N
light: B1 light
notes: as for B1
B11: M103205H795-MY181 / M103202L889-SK1 (antibody, human IgG1, kappa)
heavy: B1 heavy with G398T
light: B1 light
notes: as for B1
B12: M103205H795-MY176 / M103202L889-SK1 (antibody, human IgG1, kappa)
heavy: B1 heavy with G398L
light: B1 light
notes: as for B1
B13: M103205H795-MY179 / M103202L889-SK1 (antibody, human IgG1, kappa)
heavy: B1 heavy with G398R
light: B1 light
notes: as for B1

Key:
Assay in all cases: SPR (Biacore); KD of SG1 divided by KD of the variant for this FcgR;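 note: relative to parent M103205H795-SG1 carrying the SG1 human heavy chain constant region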
[1] = molecular target: T1, cynomolgus monkey FcγRIIa1 …
[2] = molecular target: T2, cynomolgus monkey FcγRIIa2 …
[3] = molecular target: T3, cynomolgus monkey FcγRIIa3 …
[4] = molecular target: T4, cynomolgus monkey FcγRIIb extracellular …
[5] = molecular target: T5, human FcγRIIaH extracellular domain …
[6] = molecular target: T6, human FcγRIIaR extracellular domain …
[7] = molecular target: T7, human FcγRIIb extracellular domain with …
[8] = molecular target: T8, human FcγRIIIaV extracellular domain with C-terminal His-tag (human, UniProt P08637 17-208)
T8 construct: Expressed in FreeStyle 293 cells and purified; also called FcgRIIIaV; not shown: C-terminal His-tag
T8 sequence (P08637 17-208 F176V): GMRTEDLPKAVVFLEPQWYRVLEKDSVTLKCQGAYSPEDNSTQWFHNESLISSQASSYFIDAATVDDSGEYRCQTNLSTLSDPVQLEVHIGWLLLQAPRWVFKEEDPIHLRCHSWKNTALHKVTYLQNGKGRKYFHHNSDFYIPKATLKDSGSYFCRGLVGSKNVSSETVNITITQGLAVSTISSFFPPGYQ

KD fold (SG1 = 1) [1] | KD fold (SG1 = 1) [2] | KD fold (SG1 = 1) [3] | KD fold (SG1 = 1) [4] | KD fold (SG1 = 1) [5] | KD fold (SG1 = 1) [6] | KD fold (SG1 = 1) [7] | KD fold (SG1 = 1) [8] | Binder
1.2 fold | 1.5 fold | 1.5 fold | 1.5 fold | 0.4 fold | 0.4 fold | 2.6 fold | 0.12 fold | B1
1.5 fold | 2.3 fold | 2.2 fold | 1.9 fold | 0.5 fold | 0.5 fold | 3.8 fold | 0.12 fold | B2
1.7 fold | 2.6 fold | 2 fold | 2 fold | 0.6 fold | 0.6 fold | 4.2 fold | 0.12 fold | B3
2.3 fold | 3.4 fold | 2.5 fold | 2.5 fold | 0.8 fold | 0.7 fold | 5.5 fold | 0.11 fold | B4
1.9 fold | 2.8 fold | 2.1 fold | 2.3 fold | 0.7 fold | 0.6 fold | 4.6 fold | 0.12 fold | B5
1.2 fold | 1.9 fold | 1.4 fold | 1.4 fold | 0.4 fold | 0.4 fold | 2.4 fold | 0.14 fold | B6
1.6 fold | 2.4 fold | 2 fold | 1.9 fold | 0.5 fold | 0.5 fold | 3.5 fold | 0.18 fold | B7
1.5 fold | 2.5 fold | 2 fold | 1.9 fold | 0.6 fold | 0.5 fold | 4.2 fold | 0.11 fold | B8
2.1 fold | 3.2 fold | 2.7 fold | 2.8 fold | 0.9 fold | 0.8 fold | 5.4 fold | 0.12 fold | B9
1.7 fold | 2.8 fold | 2.1 fold | 2.2 fold | 0.7 fold | 0.6 fold | 4.2 fold | 0.13 fold | B10
1.4 fold | 2.2 fold | 1.8 fold | 1.8 fold | 0.5 fold | 0.4 fold | 3.3 fold | 0.11 fold | B11
2.5 fold | 3.6 fold | 2.8 fold | 3 fold | 1 fold | 0.8 fold | 6.6 fold | 0.13 fold | B12
1.7 fold | 2.5 fold | 2.2 fold | 1.8 fold | 0.6 fold | 0.5 fold | 3.8 fold | 0.14 fold | B13
